Results reported in article PMC11592359.
Blank lines part the entries; values can stand above or below the substance they belong to.

Columns and labels:
[1] = target: LZ-mDio3^cat: leucine zipper of A. thaliana Hy5 (residues 112-150) fused N-terminally to mouse Dio3 78-304 Sec170Cys (A. thaliana | Mus musculus); assay: native gel or EMSA; Blue Native PAGE, 5% stacking and 12.5% resolving gel, 4 °C; samples from the monomer and the dimer SEC peaks; catalase, BSA and chicken egg albumin as size markers
[2] = target: LZ-mDio3^cat: leucine zipper of A. thaliana Hy5 (residues 112-150) fused N-terminally to mouse Dio3 78-304 Sec170Cys (A. thaliana | Mus musculus); assay: SEC; size exclusion chromatography of the purified recombinant protein (final purification step); 20 mM Tris/HCl pH 7.5/7.8, 200 mM NaCl, 1 mM TCEP; compared with molecular weight standards
[3] = target: mouse iodothyronine deiodinase 2 catalytic domain, residues 71-262 (Sec130Cys) (Mus musculus) (UniProt Q9Z1Y9); assay: SEC-MALS; SEC with multi angle light scattering of the two species of Dio2-71-262 (Supplementary Figure S3A)
[4] = target: mouse iodothyronine deiodinase 2 catalytic domain, residues 71-262 (Sec130Cys) (Mus musculus) (UniProt Q9Z1Y9); assay: native gel or EMSA; Blue Native PAGE, 5% stacking and 12.5% resolving gel, 4 °C; samples from the monomer and the dimer SEC peaks; catalase, BSA and chicken egg albumin as size markers
[5] = target: mouse iodothyronine deiodinase 2 catalytic domain, residues 71-262 (Sec130Cys) (Mus musculus) (UniProt Q9Z1Y9); assay: SEC; size exclusion chromatography of the purified recombinant protein (final purification step); 20 mM Tris/HCl pH 7.5/7.8, 200 mM NaCl, 1 mM TCEP; compared with molecular weight standards
[6] = target: mouse iodothyronine deiodinase 2, residues 49-262 (Mus musculus) (UniProt Q9Z1Y9); assay: not stated; size analysis of the recombinantly produced construct (Supplementary Figure S3C)

stoichiometry N [1]: 2
stoichiometry N [2]: 2
Substance: LZ-mDio3^cat: leucine zipper of A. thaliana Hy5 (residues 112-150) fused N-terminally to mouse Dio3 78-304 Sec170Cys (from UniProt O24646 112-150; Q91ZI8 78-304)

stoichiometry N [3]: 2
stoichiometry N [4]: 2
stoichiometry N [5]: 2
Substance: mouse iodothyronine deiodinase 2 catalytic domain, residues 71-262 (Sec130Cys) (from UniProt Q9Z1Y9 71-262) (domain or fragment)

stoichiometry N [6]: 2
Substance: mouse iodothyronine deiodinase 2, residues 49-262 (from UniProt Q9Z1Y9 49-262) (domain or fragment)
